Among the data in FireProtDB (doi:10.1021/bi500238q) are Tm values, retold here.

The conditions of this data set: Geobacillus kaustophilus (strain HTA426), pH 7, Thermal, CD, Potassium Phosphate Buffer 10 mM, whole UniProt chain shown.

B1: Dihydrofolate reductase wild type, Q5KZ26 (protein)
chain: MISHIVAMDENRVIGKDNRLPWHLPADLAYFKRVTMGHAIVMGRKTFEAIGRPLPGRDNVVVTRNRSFRPEGCLVLHSLEEVKQWIASRADEVFIIGGAELFRATMPIVDRLYVTKIFASFPGDTFYPPISDDEWEIVSYTPGGKDEKNPYEHAFIIYERKKAK
On to B1, for which the Tm – broadly, the temperature at which the thermal transition is half complete – runs as follows: (KCl 0.1 M) 66.9 °C; (KCl 0.2 M) 67.9 °C; (KCl 0.5 M) 68.3 °C; (KCl 1 M) 70.1 °C; (KCl 1.5 M) 71.7 °C; (KCl 2 M) 73.8 °C. Moreover, the midpoint of thermal melting (Tm) reads like this: (KF 0.1 M) 66.8 °C; (KF 0.2 M) 67.5 °C; (KF 0.5 M) 68.6 °C; (KF 1 M) 71 °C; (KF 1.5 M) 73.8 °C; (KF 2 M) 74.6 °C. Further, the Tm (NaCl 0.1 M) is 66.8 °C; the Tm (NaCl 0.2 M) came to 67.2 °C; the Tm (NaCl 0.5 M) amounted to 67.6 °C; the Tm (NaCl 1 M) was 69.5 °C; the Tm (NaCl 1.5 M) is 71.5 °C; the Tm (NaCl 2 M) came to 73.4 °C.
